From paper PMC4385471 (Molecular cell, 2015) come the findings set out here.

B3: Glutathione S-transferase (GST) tagged ARF1ΔN17 (domain or fragment)
chain: not shown

In assay [1] the target is B3. Put plainly: homologous competition assay.
The target in assay [2] is T1, Maltose Binding Protein (MBP) tagged IpaJΔ50 (Shigella flexneri, UniProt Q54150 51-259).
T1 sequence: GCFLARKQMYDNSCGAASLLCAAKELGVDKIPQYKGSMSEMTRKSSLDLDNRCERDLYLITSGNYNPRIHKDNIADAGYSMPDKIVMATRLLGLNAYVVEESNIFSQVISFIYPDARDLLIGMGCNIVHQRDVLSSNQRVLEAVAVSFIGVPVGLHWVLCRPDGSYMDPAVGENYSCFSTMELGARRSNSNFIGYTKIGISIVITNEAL
The assay can be described thus: pull-down.

The target in assay [3] is T1, Maltose Binding Protein (MBP) tagged …. The assay can be described thus: homologous competition assay.

B1: MBP-GGA1(76-215) (domain or fragment, UniProt Q9UJY5 76-215, looked up)
chain: SCGKRFHDEVGKFRFLNELIKVVSPKYLGSRTSEKVKNKILELLYSWTVGLPEEVKIAEAYQMLKKQGIVKSDPKLPDDTTFPLPPPRPKNVIFEDEEKSKMLARLLKSSHPEDLRAANKLIKEMVQEDQKRMEKISKRV
With B1, in assay [1], binding was characterised by a dissociation constant (Kd) of 1810 nM.

B2: GST-ARF5Δ17 (domain or fragment)
chain: not shown
B2: in assay [2], the binding result is “binds”.

Turning to B3, in assay [3], the equilibrium dissociation constant (Kd) stood at 280 nM.

B4: GST-ARF6Δ13 (domain or fragment, UniProt P62330 14-175, looked up)
chain: MRILMLGLDAAGKTTILYKLKLGQSVTTIPTVGFNVETVTYKNVKFNVWDVGGQDKIRPLWRHYYTGTQGLIFVVDCADRDRIDEARQELHRIINDREMRDAIILIFANKQDLPDAMKPHEIQEKLGLTRIRDRNWYVQPSCATSGDGLYEGLTWLTSNYKS
Consider B4, for which, in assay [2], the binding result is listed as “binds”.
